We go through 5 molecules from patent US11981935B2, “7β-hydroxysteroid dehydrogenase mutants and process for the preparation of ursodeoxycholic acid” (PharmaZell GmbH, priority 2010, dated 2024).

The target in series [1] is 7β-HSDH (Collinsella aerofaciens, UniProt A4ECA9). As to the kind of experiment: Photometric identification of 7β-HSDH activity (production example 1). The note with it: 0.1 mM test substance, potassium phosphate buffer 50 mM pH 8, in the presence of NADP+ or NADPH. It counts as biochemical, Collinsella aerofaciens ATCC 25986. As for the experimental part: For identification of 7β-HSDH activity, the activity was investigated by a photometric method. In a 1 ml cuvette, enzyme and 0.1 mM of test substance (UDCA) were mixed in potassium phosphate buffer (50 mM, pH8).

For series [2], the target named is 7β-HSDH from Collinsella aerofaciens DSM 3979 (Collinsella aerofaciens, UniProt A4ECA9). Type of series: biochemical.
Series [3] concerns the target T1, 7β-HSDH from Collinsella aerofaciens, wild type (WT), SEQ ID NO:2 (Collinsella aerofaciens, UniProt A4ECA9).
T1 sequence (A4ECA9 1-263): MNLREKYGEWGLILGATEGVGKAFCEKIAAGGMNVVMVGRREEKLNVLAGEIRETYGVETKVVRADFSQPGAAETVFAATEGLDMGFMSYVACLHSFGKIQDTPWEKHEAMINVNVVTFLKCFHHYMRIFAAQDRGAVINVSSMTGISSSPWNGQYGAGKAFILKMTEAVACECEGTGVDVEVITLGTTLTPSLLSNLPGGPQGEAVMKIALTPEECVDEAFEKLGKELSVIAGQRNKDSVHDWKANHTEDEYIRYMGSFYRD
The series is described as follows: Kinetic measurements of 7β-HSDH variants (microtiter plate photometer, cell lysate). The note with it: 100 μM NADPH, varied DHCA, Michaelis-Menten model with substrate inhibition.

The target of series [4] is T2, Collinsella aerofaciens 7β-HSDH mutant G39A (parent SEQ ID NO:2) (Collinsella aerofaciens, UniProt A4ECA9, G39A).
T2 sequence (A4ECA9 1-263 G39A): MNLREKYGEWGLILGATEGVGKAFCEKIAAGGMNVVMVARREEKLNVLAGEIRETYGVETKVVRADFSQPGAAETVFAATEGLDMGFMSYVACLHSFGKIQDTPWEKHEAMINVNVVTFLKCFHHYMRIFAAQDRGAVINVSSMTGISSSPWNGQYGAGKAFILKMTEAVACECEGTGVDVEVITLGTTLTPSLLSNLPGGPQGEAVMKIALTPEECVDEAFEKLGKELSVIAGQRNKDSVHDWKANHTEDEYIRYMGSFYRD
The series is described as above. The note with it: 100 μM NADPH, varied DHCA, Michaelis-Menten model with substrate inhibition.

Series [5] concerns the target T3, Collinsella aerofaciens 7β-HSDH mutant G39S (parent SEQ ID NO:2) (Collinsella aerofaciens, UniProt A4ECA9, G39S).
T3 sequence (A4ECA9 1-263 G39S): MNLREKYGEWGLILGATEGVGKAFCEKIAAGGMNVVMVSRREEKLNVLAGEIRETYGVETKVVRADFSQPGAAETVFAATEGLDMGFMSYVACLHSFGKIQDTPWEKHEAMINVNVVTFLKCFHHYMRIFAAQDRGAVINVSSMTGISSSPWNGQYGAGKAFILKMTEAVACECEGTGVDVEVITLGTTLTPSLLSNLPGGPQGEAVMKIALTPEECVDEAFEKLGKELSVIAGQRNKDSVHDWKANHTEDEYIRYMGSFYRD
The series is described as above. The settings on record: 100 μM NADPH, varied DHCA, Michaelis-Menten model with substrate inhibition.

Series [6] concerns the target T4, 7β-HSDH from Collinsella aerofaciens DSM 3979 (ATCC 25986), wild type, SEQ ID NO:2 (Collinsella aerofaciens, UniProt A4ECA9).
T4 construct: The gene coding for 7β-HSDH was once again amplified from the genomic DNA by PCR; made in house; host or cells: E. coli BL21(DE3), pET-28a(+)
T4 sequence (A4ECA9 1-263): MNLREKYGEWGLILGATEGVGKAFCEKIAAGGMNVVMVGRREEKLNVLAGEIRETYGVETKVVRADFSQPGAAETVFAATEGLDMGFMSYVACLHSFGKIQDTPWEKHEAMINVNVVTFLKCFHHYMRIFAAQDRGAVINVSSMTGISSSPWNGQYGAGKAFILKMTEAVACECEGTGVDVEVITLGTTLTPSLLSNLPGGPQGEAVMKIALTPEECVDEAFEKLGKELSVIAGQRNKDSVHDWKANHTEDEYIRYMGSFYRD
The series is described as follows: Enzyme assay and kinetic analysis of 7β-HSDH (Lineweaver-Burk). Type of series: biochemical. The settings on record: pH 8, 25° C.

Substrate in series [7]: NC(=O)c1ccc[n+]([C@@H]2O[C@H](COP(=O)([O-])OP(=O)(O)OC[C@H]3O[C@@H](n4cnc5c(N)ncnc54)[C@H](O)[C@@H]3O)[C@@H](O)[C@H]2O)c1
The series is described as follows: Kinetic constants of FDH (characterization of the mutant D221G). It counts as biochemical, Mycobacterium vaccae N10. The settings on record: 37.0 °C. The text has this:
(§1) The following vector constructs were used • pET22b(+) 7β-HSDH: a pET22b(+) vector into which the 7β-HSDH from Collinsella aerofaciens ATCC 25986 had been cloned via the Nde I and Hind III cleavage sites in the usual way. • pET22b(+) 3α-HSDH: a pET22b(+) vector into which the 3α-HSDH from Comamonas testosteroni had been cloned via the Nde I and EcoR I cleavage sites in the usual way (Oppermann et al., J Biochem, 1996, 241(3): 744-749). • pET21a(+) FDH D221G (cf. FIG. 4a): a pET21a(+) vector into which the formate dehydrogenase from Mycobacterium vaccae N10 had been cloned via the Nde I and EcoR I cleavage sites. With site-directed mutagenesis, the aspartate residue (D) at position 221 (without taking into account methionine in position 1) or position 222 (counting from methionine in position 1; cf. SEQ ID NO: 15, 19, 35) of formate dehydrogenase was replaced with a glycine residue (cf. production example 4, below). Formate dehydrogenase carries, at position 1202 of the nucleotide sequence, a single base deletion, which leads to exchange of the last amino acid valine for an alanine. Simultaneously, this base deletion leads to switching-off of the stop codon and to activation of the His·Tag that was originally outside of the reading frame (cf. SEQ ID NO: 34 and 35). • pET21a(+) 7β-HSDH: a pET21a(+) vector, into which the 7β-HSDH from Collinsella aerofaciens ATCC 25986 had been cloned via the Nde I and Xho I cleavage sites in the usual way • pET21a(+) FDH D221G 7β-HSDH (cf. FIG. 4b) • pET21a(+) FDH 7β-HSDH(G39A) 3α-HSDH (cf. FIG. 8) • pCOLA(mod) 3α-HSDH (cf. FIG. 5) Microorganisms
(§2) The production of an FDH mutant, which can regenerate not only NADH, but also NADHP, will be explained in more detail with the mutant D221G.
(§3) This can lead to repulsion of the phosphate group in the NADP^+, which is also negatively charged. The aspartate is therefore replaced with the small uncharged amino acid residue glycine (G).
(§4) First an LB preculture was inoculated from frozen stored material or with a colony from an agar plate and the preculture was incubated overnight. Incubation was carried out at 37° C. and 250 rpm. The OD of the preculture was determined and the culture was inoculated to an OD of 0.1. On reaching an OD of 0.5-1 (after about 2.5 h), it was induced with IPTG (final concentration 1 mM). The cells were harvested three hours after induction.
(§5) The cells were disrupted mechanically with glass beads. For this, 0.5 mL of glass beads were added to 0.5 mL of cell sample in a 1.5-mL reaction vessel and the reaction vessel was shaken for 3 min at maximum frequency (30 s^−1) in a Retsch vibratory mill. After cell maceration, the glass beads were centrifuged off (2 min, 13000 rpm). Before and after maceration, the culture was put on ice, to minimize protein denaturation through heating of the sample in the vibratory mill. This maceration protocol is optimized for the use of samples frozen at −20° C.
(§6) Summary of kinetic constants of FDH at pH 6, 7 and 8.

Substrate in series [8]: NC(=O)c1ccc[n+]([C@@H]2O[C@H](COP(=O)([O-])OP(=O)(O)OC[C@H]3O[C@@H](n4cnc5c(N)ncnc54)[C@H](OP(=O)(O)O)[C@@H]3O)[C@@H](O)[C@H]2O)c1
The series is described as above. The settings on record: 37.0 °C. Type of series: biochemical, Mycobacterium vaccae N10.
Description: as §1, §2, §3, §4, §5, §6

Substrate in series [9]: O=CO
Described as above. Type of series: biochemical, Mycobacterium vaccae N10. The settings on record: 37.0 °C.
Description: as §1, §2, §3, §4, §5, §6

Series [10] can be described thus: Preparative biotransformation of 7-keto-LCA by 7β-HSDH with ADH regeneration, HPLC. It counts as biochemical, Collinsella aerofaciens DSM 3979. The settings on record: isolated enzyme with ADH and 2-propanol for NADPH regeneration, 24° C., 24 hours.
The format of series [11] is biochemical, Collinsella aerofaciens. The settings on record: 100 μM NADPH.
Series [12] in a line: Photometric activity of 7β-HSDH variants with NADPH or NADH (production example 7). Type of series: biochemical, Collinsella aerofaciens.
The mark [13] stands for this setting: other: pH 6, substrate sodium formate, pH 6.0.
Setting [14] is: other: pH 7, substrate sodium formate, pH 7.0.
Where [15] appears, read: other: pH 8, substrate sodium formate, pH 8.0.

`C[C@H](CCC(=O)O)[C@H]1CC[C@H]2[C@@H]3C(=O)C[C@@H]4CC(=O)CC[C@]4(C)[C@H]3CC(=O)[C@]12C` [DHCA, Dehydrocholic acid]: in series [1], the “activity of 7β-HSDH against the test substance” value stood at 119 U/ml. Also, the Vmax in series [2] was 28.33 U/mg protein; in [3], 14.6 ± 1.0 U/mg; in series [3] (listed as DCS), 14.6 ± 1.0 U/mg; in [3] (listed as dehydrocholic acid) it was 14.6±1.0 U/mg; in series [4] (listed as DCS), 21.0 ± 1.1 U/mg; in [4] (listed as dehydrocholic acid), 21.0±1.1 U/mg. Besides, the values for the Vmax in [5] (listed as DCS) and in series [5] (listed as dehydrocholic acid) were 20.7 ± 1.0 U/mg and 20.1±1.0 U/mg, respectively. For the same molecule, in series [2], the kcat was 875.35 1 μmol/(μmol × min).
As to `NC(=O)C1=CN([C@@H]2O[C@H](COP(=O)(O)OP(=O)(O)OC[C@H]3O[C@@H](n4cnc5c(N)ncnc54)[C@H](O)[C@@H]3O)[C@@H](O)[C@H]2O)C=CC1` [NADH], the kcat entry in series [2] and in series [6] was “Traces” each time.
For `NC(=O)c1ccc[n+]([C@@H]2O[C@H](COP(=O)([O-])OP(=O)(O)OC[C@H]3O[C@@H](n4cnc5c(N)ncnc54)[C@H](O)[C@@H]3O)[C@@H](O)[C@H]2O)c1` [NAD^+], the kcat result in [2] and in series [6] was “Traces” in each case.

B1: Mycobacterium vaccae formate dehydrogenase (FDH) mutant D221G (= D222G of SEQ ID NO:36; SEQ ID NO: 15, 19, 35) (Mycolicibacterium vaccae; D222G) (protein)
chain: MAKVLCVLYDDPVDGYPKTYARDDLPKIDHYPGGQILPTPKAIDFTPGQLLGSVSGELGLREYLESNGHTLVVTSDKDGPDSVFERELVDADVVISQPFWPAYLTPERIAKAKNLKLALTAGIGSDHVDLQSAIDRNVTVAEVTYCNSISVAEHVVMMILSLVRNYLPSHEWARKGGWNIADCVSHAYDLEAMHVGTVAAGRIGLAVLRRLAPFDVHLHYTGRHRLPESVEKELNLTWHATREDMYPVCDVVTLNCPLHPETEHMINDETLKLFKRGAYIVNTARGKLCDRDAVARALESGRLAGYAGDVWFPQPAPKDHPWRTMPYNGMTPHISGTTLTAQARYAAGTREILECFFEGRPIRDEYLIVQGGALAGTGAHSYSKGNATGGSEEAAKFKKAAENSSSVDKLAAALEHHHHHH
notes: single-base deletion at the 3' end gives C-terminal read-through His-tag (last Val to Ala)
The Km is the substrate concentration at which the rate is half of its maximum. Turning to B1, the Km in [7] (setting [13]) came out at 830 µM; in series [7] (setting [14]), 610 µM; in series [7] (setting [15]) it was 520 µM; in series [8] (setting [13]), 300 µM; in [8] (setting [14]), 510 µM; in series [8] (setting [15]), 1010 µM. The Michaelis-Menten constant (Km) in [9] (other: pH 6, cofactor NAD^+, pH 6.0) came out at 46860 µM; in series [9] (other: pH 7, cofactor NAD^+, pH 7.0), 45560 µM; in [9] (other: pH 8, cofactor NAD^+, pH 8.0), 59260 µM.

B2: 7β-HSDH WT: 7β-hydroxysteroid dehydrogenase from Collinsella aerofaciens ATCC 25986 (DSM 3979), SEQ ID NO:2, NADPH-dependent (protein, listed as Collinsella aerofaciens)
chain: MNLREKYGEWGLILGATEGVGKAFCEKIAAGGMNVVMVGRREEKLNVLAGEIRETYGVETKVVRADFSQPGAAETVFAATEGLDMGFMSYVACLHSFGKIQDTPWEKHEAMINVNVVTFLKCFHHYMRIFAAQDRGAVINVSSMTGISSSPWNGQYGAGKAFILKMTEAVACECEGTGVDVEVITLGTTLTPSLLSNLPGGPQGEAVMKIALTPEECVDEAFEKLGKELSVIAGQRNKDSVHDWKANHTEDEYIRYMGSFYRD
A word on the residual activity: it is the activity still measured, relative to the control. Low values mean little activity left, high ones much activity left. On to B2, for which the “conversion of 7-keto-LCA to UDCA” value in series [10] was 90%. Besides, in [11], the “maximum attainable enzyme activities (specific enzyme activities at the maxima of the kinetic curves)” value was approximately 13 U/mg. In addition, the “enzyme activity at substrate concentration of 10 mM dehydrocholic acid” value in series [11] (10 mM dehydrocholic acid) was approximately 6.7 U/mg. Also, in series [12] (cofactor NADH), the “Specific activity NADH” value was found to be 0 U/mg and the “Volumetric activity NADH” value turned out to be 0 U/ml. Moreover, in [12] (cofactor NADPH), the “Specific activity NADPH” value is 5.6 U/mg and the “Volumetric activity NADPH” value worked out at 134 U/ml. In addition, the residual activity (23° C., 1500 min) came to 20%. Also, the “activity at 30° C. lower than at 23° C.” value (after 400 min) was “about 30%”. Also, the “activity loss during storage” value (−20° C., potassium phosphate buffer 50 mM pH 8, some months, repeated freezing and thawing) was “No significant activity loss”.
